Molecular target: laminin isolated from Engelbreth-Holm-Swarm murine sarcoma basement membrane
Assay: ELISA
Details: chain shown with the change; 20 µg protein per well; laminin 0.5 µg per well; parent: est. 3.1; read off a plot

Row | Binder | response (O.D. (492 nm))
1 | wild-type full-length (C24-P237) pallilysin, O83732 H198A (protein) CFQHGHVPPRRIPPHDTFGALPTAALPSNARDTAAHPSDTADNTSGSSTTTDPRSHGNAPPAPVGGAAQTHTQPPVQTAMRIALWNRATHGEQGALQHLLAGLWIQTEISPNSGDIHPLLFFDREHAEITFSRASVQEIFLVDSAHTHRKTVSFLTRNTAISSIRRRLEVTFESAEVIHVRAVEDVARLKIGSTSMWDGQYTRYHAGPASAPSP | 3.1
2 | wild-type full-length (C24-P237) pallilysin, O83732 E199A (protein) CFQHGHVPPRRIPPHDTFGALPTAALPSNARDTAAHPSDTADNTSGSSTTTDPRSHGNAPPAPVGGAAQTHTQPPVQTAMRIALWNRATHGEQGALQHLLAGLWIQTEISPNSGDIHPLLFFDREHAEITFSRASVQEIFLVDSAHTHRKTVSFLTRNTAISSIRRRLEVTFESHAVIHVRAVEDVARLKIGSTSMWDGQYTRYHAGPASAPSP | 3.3
3 | wild-type full-length (C24-P237) pallilysin, O83732 H202A (protein) CFQHGHVPPRRIPPHDTFGALPTAALPSNARDTAAHPSDTADNTSGSSTTTDPRSHGNAPPAPVGGAAQTHTQPPVQTAMRIALWNRATHGEQGALQHLLAGLWIQTEISPNSGDIHPLLFFDREHAEITFSRASVQEIFLVDSAHTHRKTVSFLTRNTAISSIRRRLEVTFESHEVIAVRAVEDVARLKIGSTSMWDGQYTRYHAGPASAPSP | 3

Source: PMC3406077 (2012)
